Reference: article PMC11316097 (Nature Communications, 2024)

Target: T1, bovine cyclin A2 residues 169-430 (bovine, UniProt P30274 169-430)
T1 construct: cyclin A2, bovine, residues 169-430 of UniProt P30274 (equivalent to human cyclin A residues 171-432, UniProt P20248)
Test: cryo-EM structure; purified pY15pT160CDK2, cyclin A and CDC25A(C431S) mixed 1:1.5:2, 1 hr on ice, gel filtration (Superdex S200) in 40 mM HEPES, 200 mM NaCl, 1 mM DTT, pH 7.4; grids with CHAPS; 2.7 Å
Conditions: both partners purified

T1 sequence (P30274 169-430): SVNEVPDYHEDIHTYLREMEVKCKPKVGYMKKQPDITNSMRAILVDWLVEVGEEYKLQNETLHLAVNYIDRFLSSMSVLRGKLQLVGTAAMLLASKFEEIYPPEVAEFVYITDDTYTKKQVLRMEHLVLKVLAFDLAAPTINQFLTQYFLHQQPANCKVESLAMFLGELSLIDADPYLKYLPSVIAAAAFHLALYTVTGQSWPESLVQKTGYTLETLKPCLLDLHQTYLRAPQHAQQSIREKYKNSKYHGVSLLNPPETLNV

binding result: binds
B1: human CDC25A residues 335-524 (catalytic domain and C-terminal tail), Cys431Ser (domain or fragment, UniProt P30304 335-524, looked up)
chain: RDLIGDFSKGYLFHTVAGKHQDLKYISPEIMASVLNGKFANLIKEFVIIDCRYPYEYEGGHIKGAVNLHMEEEVEDFLLKKPIVPTDGKRVIVVFHSEFSSERGPRMCRYVRERDRLGNEYPKLHYPELYVLKGGYKEFFMKCQSYCEPPSYRPMHHEDFKEDLKKFRTKSRTWAGEKSKREMYSRLKKL
notes: Form used for cryo-EM and HDX-MS; also called CDC25A(C431S); CDC25A(Cys431Ser)
